The values that follow are results of earlier work, collected in article PMC6109845.

The data set concerns the target HIF-1α 19-mer peptide (Homo sapiens) (UniProt Q16665).

Chain of von Hippel-Lindau E3 ubiquitin ligase (VHL) (P40337 whole entry): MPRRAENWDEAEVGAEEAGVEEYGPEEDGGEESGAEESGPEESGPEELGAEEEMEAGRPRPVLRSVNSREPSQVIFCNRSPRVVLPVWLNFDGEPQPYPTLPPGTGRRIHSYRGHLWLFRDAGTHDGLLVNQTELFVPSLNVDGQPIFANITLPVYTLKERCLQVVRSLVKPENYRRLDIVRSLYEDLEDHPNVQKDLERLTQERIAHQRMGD

For orientation: Kd means the free concentration of one partner at which half of the binding sites on the other are occupied at equilibrium, for simple one-to-one binding. Turning to “von Hippel-Lindau E3 ubiquitin ligase (VHL) (from UniProt P40337)”, the Kd was 3 nM.
